Data as given in patent US20110143963A1.

Legend:
[1] = target: δ-catenin peptide PASPDSWV-COOH; assay: SPR (BIAcore)
[2] = target: ARVCF peptide PQPVDSWV-COOH (eight-residue motif corresponding to the ARVCF C-terminus); assay: SPR (BIAcore)
eSH2-3 (human) [3] = target: eSH2-3 (human) (UniProt P62993); assay: competition phage ELISA: eSH2-3 phage pre-incubated with free pY1139 peptide, unbound phage captured
eSH2-3 (human) [4] = target: eSH2-3 (human) (UniProt P62993); assay: panel B, competition phage ELISA: eSH2-3 phages incubated with free pY1139 peptide (0 to 50 nM), phages not bound to the free peptide captured and detected
[5] = target: SH2 domain of human Grb2 (human) (UniProt P62993); assay: panel D, competition phage ELISA: wtSH2 (Grb2-SH2) phages incubated with free pY1139 peptide (0 to about 2200 nM), phages not bound to the free peptide captured and detected
eSH2-6 (human) [6] = target: eSH2-6 (human) (UniProt P62993); assay: panel C, competition phage ELISA: eSH2-6 phages incubated with free pY1139 peptide (0 to 50 nM), phages not bound to the free peptide captured and detected
eSH2-6 (human) [7] = target: eSH2-6 (human) (UniProt P62993); assay: competition phage ELISA: eSH2-6 phage pre-incubated with free pY1139 peptide, unbound phage captured

Chain of SH2 domain of human Grb2 (human) (P62993 56-153 limits assumed): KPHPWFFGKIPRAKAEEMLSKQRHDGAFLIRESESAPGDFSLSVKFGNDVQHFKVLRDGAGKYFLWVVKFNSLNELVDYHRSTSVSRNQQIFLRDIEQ

Kd [1] [µM]	Kd [2] [µM]	IC50 (eSH2-3 (human) [3]) [µM]	IC50 (eSH2-3 (human) [4]) [nM]	IC50 [5] [µM]	IC50 (eSH2-6 (human) [6]) [nM]	IC50 (eSH2-6 (human) [7]) [µM]	Substance
10	10	–	–	–	–	–	PDZ domain of Erbin (wild-type) (from UniProt Q96RT1 1314-1412)
–	–	90	0.09	0.07	0.09	90	pY-containing peptide corresponding to residues 1130-1146 of ErbB2 (HER2) pY1139
